The results in this text go back to US20250011410A1 (INVETX, published 2025).

First the molecules themselves.
B1: canine NGF tagged at the C-terminus with the Flag tag (ligand)
chain: SSSHPVFHRGEFSVCDSVSVWVGDKTTATDIKGKEVMVLGEVNINNSVFKQYFFETKCRDPTPVDSGCRGIDSKHWNSYCTTTHTFVKALTMDGKQAAWRFIRIDTACVCVLSRKAGRRADYKDDDDK
notes: Baculovirus expression; also called feline NGF (processed form identical)

Values joined by “and” are separate entries in the source; they are usually repeats but may differ in a detail not shown here. Equal entries are not always repeated.

The target in test [1] is T1, canine p75-Fc (canine; human).
T1 construct: extracellular domain; also called canine p75 in a dimer format; not shown: human IgG1 Fc, UniProtKB P01857
Put plainly: SPR, p75-Fc captured on anti-human Fc chip, NGF analyte.

For test [2], the target named is T2, canine TrkA-Fc (canine; human, UniProt A0A8I3P078 33-423).
T2 construct: extracellular domain; also called Trk-Fc; canine TrkA in a dimer format; not shown: human IgG1 Fc, UniProtKB P01857
The test is described as follows: SPR, TrkA-Fc captured on anti-human Fc chip, NGF analyte. For orientation: Surface plasmon resonance follows binding to a sensor surface in real time, without labels.

Test [3] deals with T3, BDNF (R&D Systems, 248-BDB-050/CF) (UniProt P23560 129-247).
T3 sequence (looked up): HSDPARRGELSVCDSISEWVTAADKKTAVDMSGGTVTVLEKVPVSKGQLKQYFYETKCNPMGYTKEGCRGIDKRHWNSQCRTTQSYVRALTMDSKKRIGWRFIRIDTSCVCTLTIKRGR
The test is described as follows: multiplexed bead assay, flow cytometry. For orientation: A flow cytometer gives signals particle by particle.

Test [4] concerns the target T4, NT-3 (R&D Systems, 267-N3-025/CF) (UniProt P20783 139-257).
T4 sequence (looked up): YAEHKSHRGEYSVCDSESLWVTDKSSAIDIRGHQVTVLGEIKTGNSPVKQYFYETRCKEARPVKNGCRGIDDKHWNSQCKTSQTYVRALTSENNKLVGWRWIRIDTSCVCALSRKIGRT
Put plainly: multiplexed bead assay, flow cytometry.

The target in test [5] is T5, human NGF (R&D Systems, 256-GF-100/CF) (human, UniProt P01138 122-241).
T5 construct: Conjugated to beads or fluorescently labelled; also called human NGF antigen
The test is described as follows: multiplexed bead assay, flow cytometry.

Test [6] deals with B1. The test is described as follows: SPR, antibody amine-coupled, NGF analyte.
In test [7] the target is B1. The test is described as follows: SPR; antibody amine-coupled to HC30M sensor chip, canine NGF-Flag as analyte.
For test [8], the target named is canine NGF with a strep-tag at the C-terminus (canine, UniProt A0A8I3PYI3 122-241). Put plainly: cell-based or functional assay.
Test [9] concerns the target T2, canine TrkA-Fc. The test is described as follows: SPR, receptor-Fc captured on anti-human Fc chip.
Test [10] deals with B1. The test is described as follows: SPR Biacore T200, antibody captured on protein A, NGF analyte.
Test [11] deals with B1. Put plainly: SPR Biacore T200, antibody captured on protein A, NGF analyte; fitted KD, one-to-one model.
Test [12] deals with B1. The test is described as follows: SPR, antibody captured on goat anti-cat IgG, single cycle kinetics, NGF analyte.

T2 sequence (A0A8I3P078 entry or part of it): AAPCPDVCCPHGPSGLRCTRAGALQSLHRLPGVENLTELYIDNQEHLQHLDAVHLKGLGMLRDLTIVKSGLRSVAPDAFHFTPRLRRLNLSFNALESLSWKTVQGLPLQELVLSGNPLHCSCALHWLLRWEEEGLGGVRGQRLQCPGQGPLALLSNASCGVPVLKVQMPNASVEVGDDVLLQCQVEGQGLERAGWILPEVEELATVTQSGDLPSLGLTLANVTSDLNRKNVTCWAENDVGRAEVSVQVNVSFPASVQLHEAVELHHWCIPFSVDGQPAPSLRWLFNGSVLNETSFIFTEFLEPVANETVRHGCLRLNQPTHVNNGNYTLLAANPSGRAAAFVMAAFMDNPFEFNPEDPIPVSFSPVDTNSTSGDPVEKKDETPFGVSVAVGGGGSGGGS
T5 sequence (P01138 122-241 limits assumed): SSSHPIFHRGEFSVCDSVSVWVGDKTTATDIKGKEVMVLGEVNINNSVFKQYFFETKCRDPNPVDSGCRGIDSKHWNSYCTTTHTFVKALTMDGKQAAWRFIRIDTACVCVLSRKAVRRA

With B1, in test [1], the dissociation constant (Kd) (in general, a measure of binding affinity in units of concentration) is 3.7 nM and 2.7 nM. Besides, in [2], the equilibrium dissociation constant (Kd) is 0.013 nM and 0.0066 nM; the koff (usually the rate constant with which the complex falls apart) is 0.00017 s⁻¹ and 0.00016 s⁻¹; the association rate constant (kon) (usually a measure of how fast the partners come together) is 1.3e+07 M⁻¹ s⁻¹ and 2.4e+07 M⁻¹ s⁻¹.

B2: rat antibody 2166 (antibody, V domains shown)
VH: QVQLKESGPGLVQPSQTLSLTCTVSGLSLTSNSVSWIRQPPGKGLEWMGVIWSNGGTDYNSAIESRLSINRDTSKSQVFLKMNSLQPEDTAMYFCASIYYYDADYLHWYFDFWGPGTMVTVSS
VL: DIQMTQSPASLSASLGETVSIECLASEGISNSLAWYQLKPGKSPQFLIYATSSLQDGVPSRFSGSGSGTQYSLKISGMQPEDEGVYYCQQGYKFPLTFGSGTKLKIK
Regarding B2, the binding result in test [3] and in test [4] was “no binding” throughout. Further, in test [5], the “fold over background (MFI normalized over isotype control)” value is more than 59 fold. Also, the Kd was not above 0.0042 nM in test [6] and 0.042 nM in test [7]. The koff in test [6] was not above 1e-05 s⁻¹. For the same molecule, the on-rate (kon) in test [6] stood at 2.38e+06 M⁻¹ s⁻¹. Moreover, in test [8], the “IC50 (read off the curve): % inhibition of canine NGF-driven TF-1 cell proliferation” value is approximately 0.03 nM.

B3: canine 2166 chimeric antibody (antibody, V domains shown)
VH: QVQLKESGPGLVQPSQTLSLTCTVSGLSLTSNSVSWIRQPPGKGLEWMGVIWSNGGTDYNSAIESRLSINRDTSKSQVFLKMNSLQPEDTAMYFCASIYYYDADYLHWYFDFWGPGTMVTVSS
VL: DIQMTQSPASLSASLGETVSIECLASEGISNSLAWYQLKPGKSPQFLIYATSSLQDGVPSRFSGSGSGTQYSLKISGMQPEDEGVYYCQQGYKFPLTFGSGTKLKIKR
Take B3: the binding result in test [9] is “no binding (tested: 12.5 nM to 100 nM)”. In test [10], this molecule came in with an off-rate constant (koff) of less than 1e-05 s⁻¹ and a kon of 1.2e+07 M⁻¹ s⁻¹. This molecule registered a Kd in test [11] not above 0.05 nM.

B4: felinized clone 101 (antibody, V domains shown)
VH: DVQLVESGGDLVKPGGSLRLTCVASGLSLTSSSMSWVRQAPGKGLQWVSTIYSNGGTYYTDSVKGRFTISKDNAENTLYLQMNNLKTEDTATYYCASIYYYDADYLHWYFDFWGQGALVTVSS
VL: EIQMTQSPTSLSASVGDRVTITCRASEGISNNLSWYQQTPGKAPKLLIYATSNLHSGVPSRFSGSGSGTDFTLTISSLQPEDFATYYCQQGYKWPLTFGGGTKLEIT
Take B4: in test [12], the Kd came out at 7.8 nM, the koff was determined as 0.003 s⁻¹ and the on-rate constant (kon) turned out to be 380000 M⁻¹ s⁻¹.
